Source: US20140303356A1

Tests used:
[1] = biological target: CH2-CH3 construct G1-F405L (human); test: native MS, monomer-dimer equilibrium of CH2-CH3 fragment, homodimer
[2] = biological target: IgG1Δhinge fragment of IgG1-7D8-K409R; test: native MS, CH2-CH3 fragment mixed with IgG1Δhinge fragment for 24 hours, heterodimer

CH2-CH3 construct G1-F405L was tested, and the Kd [1] was 850 nM and the Kd [2] was 12 nM.
